Assay results: patent US20120107364A1 (ACTGEN, published 2012)

Key:
Assay in all cases: flow cytometry on Ba/F3 cells expressing the truncated PODXL2
[1] = target: T1, PODXL2, positions 1 to 350 (human, UniProt O00592 23-382)
T1 construct: One of the 14 C-terminal truncations; Expressed on Ba/F3 cells; also called R350
T1 sequence: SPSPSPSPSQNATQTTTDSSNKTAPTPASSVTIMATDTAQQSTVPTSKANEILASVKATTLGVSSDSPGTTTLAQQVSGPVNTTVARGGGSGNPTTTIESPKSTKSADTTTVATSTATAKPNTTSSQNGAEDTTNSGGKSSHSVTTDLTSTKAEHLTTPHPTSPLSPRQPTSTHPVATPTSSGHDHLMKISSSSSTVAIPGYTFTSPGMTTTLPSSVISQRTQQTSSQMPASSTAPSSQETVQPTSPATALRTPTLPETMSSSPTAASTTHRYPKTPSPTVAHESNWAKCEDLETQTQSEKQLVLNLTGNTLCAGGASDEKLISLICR
Description: (§1) To each sample of the cell suspension, 50 μl of the hybridoma culture supernatant or 2-μg/ml of the purified antibody (hereinafter, referred to as an “antibody solution”) was added, and the antibody was reacted with the cells. As an isotype control of the antibody solution, a wash buffer containing 2 μg/ml of each of mouse IgG1 (BioLegend, 400412), mouse IgG2a (BioLegend, 400224), and mouse IgG2b (BioLegend, 400324) was used. The hybridoma culture supernatant was reacted with the target cells at room temperature for 30 minutes, followed by centrifugation at 700×g for 2 minutes. Then, a culture supernatant was removed. Further, 100 μl of a wash buffer was added, followed by centrifugation at 700×g for 2 minutes again. A supernatant was removed. Then, the cells were washed.
(§2) Next, to the cell pellets after the washing, 50 μl of Goat anti-mouse IgG, F(ab′) 2-PE (PE=phycoerythrin, Beckman Coulter, IM0855) diluted 200-fold with a wash buffer was added as a secondary antibody for detection, and reacted in the dark at room temperature for 30 minutes. The reaction was followed by centrifugation at 700×g for 2 minutes. A supernatant was removed. Further, 100 μl of a wash buffer was added, followed by centrifugation at 700×g for 2 minutes again. A supernatant was removed. Then, the cells were washed. Thereafter, the cells were suspended in an appropriate amount of a wash buffer. The reactivity between the antibody and the cells was analyzed by a flow cytometer (Beckman Coulter, FC500 MPL).
(§3) Thereafter, by the same method as in Example 1 (4) (the virus packaging and thereafter), Ba/F3 cells containing the PODXL2 gene sequences of various chain lengths were prepared. Further, by the same method as in Example 4, the reactivity between the ACT36-27_{—}5D1 antibody and the Ba/F3 cells expressing the PODXL2 molecules of various chain lengths was analyzed by a flow cytometer (FIG. 10).

[2] = target: T2, PODXL2, positions 1 to 310 (human, UniProt O00592 23-342)
T2 construct: One of the 14 C-terminal truncations; Expressed on Ba/F3 cells; also called R310
T2 sequence: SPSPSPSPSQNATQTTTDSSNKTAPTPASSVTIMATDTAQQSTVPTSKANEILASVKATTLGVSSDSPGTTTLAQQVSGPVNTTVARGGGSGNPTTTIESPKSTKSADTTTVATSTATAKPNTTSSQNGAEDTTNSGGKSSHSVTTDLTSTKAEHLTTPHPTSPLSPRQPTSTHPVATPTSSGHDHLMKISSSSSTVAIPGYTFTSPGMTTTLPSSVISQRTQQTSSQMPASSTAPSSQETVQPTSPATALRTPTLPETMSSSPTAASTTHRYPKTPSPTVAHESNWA
Description: as §1, §2, §3

[3] = target: T3, PODXL2, positions 1 to 300 (human, UniProt O00592 23-332)
T3 construct: Shortest of the 14 C-terminal truncations; Expressed on Ba/F3 cells; also called R300
T3 sequence: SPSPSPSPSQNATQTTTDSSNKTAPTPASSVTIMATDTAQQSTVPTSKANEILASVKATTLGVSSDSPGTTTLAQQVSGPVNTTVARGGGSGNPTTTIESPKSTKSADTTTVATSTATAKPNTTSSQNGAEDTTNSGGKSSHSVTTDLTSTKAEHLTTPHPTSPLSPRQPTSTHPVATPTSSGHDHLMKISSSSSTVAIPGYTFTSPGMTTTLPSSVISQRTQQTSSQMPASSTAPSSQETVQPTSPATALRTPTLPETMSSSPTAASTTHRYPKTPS
Description: as §1, §2, §3

[4] = target: T4, PODXL2, positions 1 to 420 (human, UniProt O00592 23-452)
T4 construct: Encoded as positions 1-420 in pMX-SST and expressed on Ba/F3 cells; The vector-encoded part is not described; also called R420
T4 sequence: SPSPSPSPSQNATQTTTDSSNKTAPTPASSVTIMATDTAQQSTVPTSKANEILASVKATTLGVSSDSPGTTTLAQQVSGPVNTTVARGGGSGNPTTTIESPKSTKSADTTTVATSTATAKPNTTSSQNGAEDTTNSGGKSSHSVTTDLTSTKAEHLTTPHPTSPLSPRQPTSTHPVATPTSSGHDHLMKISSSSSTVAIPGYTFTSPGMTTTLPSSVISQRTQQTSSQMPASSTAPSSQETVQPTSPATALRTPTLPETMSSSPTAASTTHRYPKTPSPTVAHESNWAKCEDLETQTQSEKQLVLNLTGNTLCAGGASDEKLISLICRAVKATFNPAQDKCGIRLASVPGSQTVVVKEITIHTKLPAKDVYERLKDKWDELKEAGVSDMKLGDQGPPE
Description: as §1, §2, §3

[5] = target: T5, PODXL2, positions 1 to 410 (human, UniProt O00592 23-442)
T5 construct: Encoded as positions 1-410 in pMX-SST and expressed on Ba/F3 cells; The vector-encoded part is not described; also called R410
T5 sequence: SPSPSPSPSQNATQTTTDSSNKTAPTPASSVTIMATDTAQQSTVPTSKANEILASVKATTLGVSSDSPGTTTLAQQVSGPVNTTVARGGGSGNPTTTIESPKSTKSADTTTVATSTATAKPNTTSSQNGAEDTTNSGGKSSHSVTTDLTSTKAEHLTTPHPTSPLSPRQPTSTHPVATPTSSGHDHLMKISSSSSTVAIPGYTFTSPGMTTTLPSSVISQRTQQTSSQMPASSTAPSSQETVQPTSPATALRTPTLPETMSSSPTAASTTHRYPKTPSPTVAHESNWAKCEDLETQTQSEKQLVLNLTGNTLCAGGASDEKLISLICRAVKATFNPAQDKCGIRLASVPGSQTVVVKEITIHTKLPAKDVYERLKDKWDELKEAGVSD
Description: as §1, §2, §3

binding result [1]: no binding | binding result [2]: no binding | binding result [3]: no binding | binding result [4]: binds | binding result [5]: binds
B1: ACT36-27-5D1 antibody (antibody, V domains shown)
VH: EVQLQQSGPELVKPGASVKMSCKASGYTFTSYVMHWVKQKPGQGLEWIGYIHPYNDGIKYNEKFKGKATLTSDKSSSTAYMDLSSLTSEDSAVYYCARSWDWYFDVWAAGTTVTVSS
VL: QIVLTQSPAIMSASPGEKVSMTCSASSSVSYMHWYQQKSGTSPKRWIYDTSKLASGVPARFSGSGSGTSYSLTISSMEAEDAATYYCLQWSSNPPTFGGGTKLE
notes: also called anti-PODXL2 antibody ACT36-27-5D1; anti-ACT36-27-5D1 monoclonal antibody
